B1: TPR t1 (parent)
chain: GACCAAUCUGCCCUCAGAGCUCGAGAACAUCUUCGGAUGCAGAGGAGGCAGGCUUCGGUGGCGCGAUAGCGCCAACGUCCUCAACCUCCAAUGCAUCCCACCACAUGAUGAUGCCUGAAGAGCCUUGGUUUUUUG

Variants of: B1
Assay: polymerase ribozyme fitness, log enrichment relative to wild type (log ratio); higher = more active; in vitro selection for triplet polymerase activity
Procedure, shortened: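 After PCR construction and transcription, each subunit's mutant library from a heterodimeric triplet polymerase ribozyme was annealed with a biotinylated primer, the partner subunit and triplets. Incubation was frozen, at −7 °C, and extended constructs were gel-excised, bound to streptavidin beads and amplified by RT-PCR, in one selection round done in triplicate. Fitness is the logarithm of a genotype's enrichment divided by that of the wild type, from inverse-variance-weighted replicate averages of Illumina-sequenced inputs and outputs. The base of the logarithm is 2, and genotypes needed ≥10 input reads and ≥1 read per output.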

| Variant | polymerase ribozyme fitness (log ratio) |
| --- | --- |
| C62A A105C | -3.71 |
| C62A A105U | -3.07 |
| G63A A91C | -4.17 |
| G63A A91G | -2.33 |
| G61U C86U | -0.781 |
| G61U U81C C101G | -2.09 |
| C62U G77U | -0.487 |
| C62A U106A | -1.37 |
| C62G C86U | -1.34 |
| C62A U130C | -1.71 |
| C62G C104U | -1.52 |
| C62G C104A | -4.04 |
| C62A C70U C86A | -4.26 |
| C62U U87A | 0.539 |
| G63A G69C | -6.1 |
| G61U C124U | 1.52 |
| G61U G65A | -4.98 |
| G61U U106C G135U | -1.67 |
| G63A C82U U126G | -2.36 |
| C62U G117C G128A | -6.43 |
| G61U G113A C115U | -3.08 |
| C62G C114U U116A | -5.69 |
| C62U C104U | 0.0133 |
| C62G G120C | -0.544 |

| Variant | polymerase ribozyme fitness (log ratio) |
| --- | --- |
| C62G G120A | -0.673 |
| G61U C101A | -1.33 |
| G61U C101U | 0.0554 |
| G61U C102A | -2.05 |
| C62U C97G | -4.18 |
| C62U C97U | -0.489 |
| C62U C94A | -1.69 |
| G63A G93C G113U G135A | -4.37 |
| G63A A119G | -0.0262 |
| C62U A90C G135U | -2.45 |
| G61U G110A | -0.469 |
| G63A U87G A95U | -1.19 |
| C62A C86A C98U | -3.12 |
| C62A C115A | -1.58 |
| C62A U133G | -2.87 |
| G63A A66U U106A G117A | -4.86 |
| G63A A105U | -3.59 |
| C62U A66G | -1.54 |
| C62G A100U G120U | -3.32 |
| C62A C79U C89G U130A | -3.65 |
| G63A C104U C114G | -4.92 |
| G61U C101G U106A | 0.513 |
| C62A A75G G93A | -2.34 |
| C62A U129G | -1.28 |

| Variant | polymerase ribozyme fitness (log ratio) |
| --- | --- |
| C62U G63U U109G | -7.47 |
| C62A G128C | -3.8 |
| G63A C79G U109G | -7.2 |
| C62A C73A | -2.4 |
| G63A C89A | -3.19 |
| G63A A111G | -0.659 |
| G63A C80U | -1.54 |
| G63A A84C | -0.832 |
| C62G C86A C99U C101U A121G G122U | -5.18 |
| G63A C104A | -2.41 |
| G61U U87G | 0.809 |
| C62U C94U C98G G110U | -6.52 |
| G61U U116C | 0.227 |
| C62U U131C | 0.107 |
| C62U A119G | 0.565 |
| C62A C124A | 1.01 |
| C62A C124U | 1.51 |
| C62U A90C | -2.52 |
| G61U U126A | -1.86 |
| C62U A105U | -2.19 |
| G63A C101U | -0.216 |
| G63A G120A G135C | -0.591 |
| C62U C76G U78A | -0.661 |
| G63A U78A A119U | -1.76 |

| Variant | polymerase ribozyme fitness (log ratio) |
| --- | --- |
| C62U U81C C94U U96C C114A | -2.82 |
| C62G A111C | -1.87 |
| C62G C73U A74U U109G C124A | -6.92 |
| C62G U126C | -2.05 |
| C62U U112A | 1.02 |
| C62U U112G | -0.737 |
| C62U G135A | -1.28 |
| G61U U112A | 1.27 |
| C62G A118G | -1.44 |
| G63A U87C | -0.482 |
| G63A A100U | -1.77 |
| G61U C101U A119G C124G | 1.72 |
| G61U G93U | -0.532 |
| G63A C88U A118C | -3.02 |
| C62A G117U | -3.38 |
| C62A G117A | -2.71 |
| G63A G128A | -2.19 |
| G63A G128C | -3.34 |
| C62U C86G | -0.606 |
| G61U G122A | -0.264 |
| C62A C114U | -2.2 |
| C62U C80A A84C | -3.26 |
| C62U C76U G127A | -2.58 |
| C62U U87A U92A G120C | -3.58 |

| Variant | polymerase ribozyme fitness (log ratio) |
| --- | --- |
| C62A C88A | -2.76 |
| C62A C88U | -2.23 |
| G61U C89U U92G | -3 |
| G61U U131A | -0.736 |
| C62A C64U C114A A121U C123G | -4.48 |
| C62U U81G | -3.67 |
| G61U U92G U126A U129G | -5.18 |
| G61U U106G A108U | -4.45 |
| G61U C123G | 1.2 |
| G61U C123A | 0.578 |
| G63A C104U G120A G127A | -0.508 |
| C62U C73U U112G | 0.712 |
| G61U U96G U129G | -1.29 |
| C62G U106G | -4.29 |
| C62G U78G | -2.88 |
| C62U U92G C99A C124U U131C | -5.96 |
| C62A A121C | 0.464 |
| C62A A83U U92A U116C | -5.36 |
| C62U C70G | -3.65 |
| C62A C104A G113A | -4.4 |
| C62U C79U | -0.282 |
| C62G A95G | -1.49 |
| C62A C72U G117A U129A U130C | -2.9 |
| G63A C73A | -1.93 |

| Variant | polymerase ribozyme fitness (log ratio) |
| --- | --- |
| G61U C115A | 0.264 |
| G61U C115U | -0.433 |
| G61U G77A | -0.736 |
| C62U C76U G120C | 0.583 |
| C62U A95U A105U | -3.17 |
| G63A U96C | -1.54 |
| G63A U96A | -1.81 |
| C62G U78C U96C | -3.37 |
| C62G G128A | -2.8 |
| C62U U78C U96G U129C | -0.314 |
| C62U U106A | 0.471 |
| C62G G117A | -2.78 |
| G63A C82U | -1.51 |
| G61U C114U | -0.943 |
| G63A G77U C79U A100C | -2.62 |
| C62G C89A | -4.23 |
| C62G C70A C85A C98U C124U | -6.66 |
| C62U C99U C101U | -3.02 |
| G63A U92A | -4.6 |
| C62G C102U | -4.74 |
| G63A A118U | 0.468 |
| C62G C115U | -2.93 |
| C62G A90G C97U A111C | -1.19 |
| G63A C98G G117C G128A U133C | -5.29 |

| Variant | polymerase ribozyme fitness (log ratio) |
| --- | --- |
| C62A A74U U81C | -5.14 |
| G61U U78C G117U | -1.99 |
| G63A G71C | -3.85 |
| G63A A105U U112A | -3.65 |
| C62G C82A | -1.67 |
| C62A C79U C82A A111C | -0.967 |
| C62A U96A U112C | -0.2 |
| G63A G117C | -3.7 |
| G63A G117A | -2.26 |
| G61U U78G C94A U129A | -2.72 |
| G63A U78C G93A G122A | -2.28 |
| C62U U87G U109A | -5.76 |
| G61U G120C | 1.18 |
| G61U G120U | 1.51 |
| C62A A74G | -5.22 |
| C62A G77U U78A A119U G128C | -5.16 |
| C62U G69A C97G G110C | -6.75 |
| G61U G117C U131C | -3.82 |
| C62A A119C C123U | -2.98 |
| G61U U130C | 0.445 |
| C62A U81G G120A | -4.65 |
| G61U U109C | -2.41 |
| G61U C98U U129C | -0.95 |
